In patent publication US20200283475A1:

Experiments:
[1] = molecular target: human polyclonal IgG (Gammanorm) (human); experiment: SPR; ratio of remaining capacity to reference Zvar1
[2] = molecular target: human polyclonal IgG (Gammanorm) (human); experiment: SPR, ligand on chip; signal left after 96-100 CIP cycles 0.5 M NaOH
[3] = molecular target: human polyclonal IgG (Gammanorm) (human); experiment: SPR; ratio to reference Zvar4
[4] = molecular target: human polyclonal IgG (Gammanorm) (human); experiment: SPR, ligand on chip; CIP cycles 0.5 M NaOH
[5] = molecular target: human polyclonal IgG (Gammanorm) (human); experiment: SPR; ratio to reference Zvar2

Capacity relative to reference [1]	Capacity after 96-100 cycles [2] [%]	Substance	further results
1.04	53	Zvar(N11E,Q32E,K50R)1 (designed binder)	–
1.31	59	Zvar(N11K,H18K,D37E,A42R,N43A,L44I)1 (designed binder)	–
1.46	67	Zvar(N11K,H18K,S33K,D37E,A42R,N43A,L44I,K50R,L51Y)1 (designed binder)	–
1.19	56	Zvar(Q9A,N11E,A29D,Q40V,A42K,N43A,L44I)1 (designed binder)	–
1.21	57	Zvar(Q9A,N11E,A29E,Q40V,A42K,N43A,L44I)1 (designed binder)	–
1.35	62	Zvar(Q9A,N11E,A29F,Q40V,A42K,N43A,L44I)1 (designed binder)	–
1.21	57	Zvar(Q9A,N11E,A29H,Q40V,A42K,N43A,L44I)1 (designed binder)	–
1.23	58	Zvar(Q9A,N11E,A29I,Q40V,A42K,N43A,L44I)1 (designed binder)	–
1.28	59	Zvar(Q9A,N11E,A29K,Q40V,A42K,N43A,L44I)1 (designed binder)	–
1.33	61	Zvar(Q9A,N11E,A29L,Q40V,A42K,N43A,L44I)1 (designed binder)	–
1.32	62	Zvar(Q9A,N11E,A29M,Q40V,A42K,N43A,L44I)1 (designed binder)	–
1.3	61	Zvar(Q9A,N11E,A29N,Q40V,A42K,N43A,L44I)1 (designed binder)	–
1.28	60	Zvar(Q9A,N11E,A29Q,Q40V,A42K,N43A,L44I)1 (designed binder)	–
1.26	58	Zvar(Q9A,N11E,A29R,Q40V,A42K,N43A,L44I)1 (designed binder)	–
1.38	66	Zvar(Q9A,N11E,A29S,Q40V,A42K,N43A,L44I)1 (designed binder)	–
1.28	60	Zvar(Q9A,N11E,A29T,Q40V,A42K,N43A,L44I)1 (designed binder)	–
1.32	62	Zvar(Q9A,N11E,A29V,Q40V,A42K,N43A,L44I)1 (designed binder)	–
1.3	60	Zvar(Q9A,N11E,A29W,Q40V,A42K,N43A,L44I)1 (designed binder)	–
1.27	61	Zvar(Q9A,N11E,A29Y,Q40V,A42K,N43A,L44I)1 (designed binder)	–
–	–	Zvar(Q9A,N11E,D37E,Q40V,A42K,N43A,L44I)4 (designed binder)	Capacity relative to ref. 100 cycles [3]: 1.13; Remaining capacity 100 cycles (%) [4]: 81%
–	–	Zvar(Q9A,N11E,D37E,Q40V,A42R,N43A,L44I)4 (designed binder)	Capacity relative to ref. 100 cycles [3]: 1.17; Remaining capacity 100 cycles (%) [4]: 84%
1.35	65	Zvar(Q9A,N11E,N28A,Q40V,A42K,N43A,L44I)1 (designed binder)	–

Capacity relative to reference [1]	Capacity after 96-100 cycles [2] [%]	Substance	further results
–	–	Zvar(Q9A,N11E,N28A,Q40V,A42K,N43A,L44I)4 (designed binder)	Capacity relative to ref. 100 cycles [3]: 1.24; Remaining capacity 100 cycles (%) [4]: 84%
–	–	Zvar(Q9A,N11E,N43A)4 (designed binder)	Capacity relative to ref. 100 cycles [3]: 1.21; Capacity relative to ref. 200 cycles [3]: 1.72; Capacity relative to ref. 300 cycles [3]: 2.56; Remaining capacity 100 cycles (%) [4]: 81%; Remaining capacity 200 cycles (%) [4]: 62%; Remaining capacity 300 cycles (%) [4]: 41%
–	–	Zvar(Q9A,N11E,Q40V,A42K,N43A,L44I)2 with A56, P57 and K58 in linker deleted (designed binder)	Capacity relative to ref. 100 cycles [5]: 1.26; Remaining capacity 100 cycles (%) [4]: 68%
–	–	Zvar(Q9A,N11E,Q40V,A42K,N43A,L44I)2 with D2, A3 and K4 in linker deleted (designed binder)	Capacity relative to ref. 100 cycles [5]: 1.27; Remaining capacity 100 cycles (%) [4]: 70%
–	–	Zvar(Q9A,N11E,Q40V,A42K,N43A,L44I)2 with K4, F5, D6, K7 and E8 in linker deleted (designed binder)	Capacity relative to ref. 100 cycles [5]: 1.3; Remaining capacity 100 cycles (%) [4]: 70%
–	–	Zvar(Q9A,N11E,Q40V,A42K,N43A,L44I)2 with K58, V1 and D2 in linker deleted (designed binder)	Capacity relative to ref. 100 cycles [5]: 1.38; Remaining capacity 100 cycles (%) [4]: 76%
–	–	Zvar(Q9A,N11E,Q40V,A42K,N43A,L44I)2 with P57, K58, V1, D2 and A3 in linker deleted (designed binder)	Capacity relative to ref. 100 cycles [5]: 1.35; Remaining capacity 100 cycles (%) [4]: 74%
–	–	Zvar(Q9A,N11E,Q40V,A42K,N43A,L44I)2 with V1, D2 and A3 in linker deleted (designed binder)	Capacity relative to ref. 100 cycles [5]: 1.39; Remaining capacity 100 cycles (%) [4]: 75%
–	–	Zvar(Q9A,N11E,Q40V,A42K,N43A,L44I)2 with V1, D2, A3, K4, F5, D6, K7 and E8 in linker deleted (designed binder)	Capacity relative to ref. 100 cycles [5]: 1.13; Remaining capacity 100 cycles (%) [4]: 62%
1.26	58	Zvar(Q9A,N11E,Q40V,A42K,N43A,L44I,D53F)1 (designed binder)	–
1.41	65	Zvar(Q9A,N11E,Q40V,A42K,N43A,L44I,D53K)1 (designed binder)	–
1.3	60	Zvar(Q9A,N11E,Q40V,A42K,N43A,L44I,D53R)1 (designed binder)	–
1.35	62	Zvar(Q9A,N11E,Q40V,A42K,N43A,L44I,D53W)1 (designed binder)	–
1.28	59	Zvar(Q9A,N11E,Q40V,A42K,N43A,L44I,D53Y)1 (designed binder)	–
1.2	55	Zvar(Q9A,N11E,Q40V,A42K,N43del,L44I)1 (designed binder)	–
1.24	57	Zvar(Q9A,N11E,Q40V,A42del,N43A,L44I)1 (designed binder)	–
1.28	59	Zvar(Q9A,N11E,Q40del,A42K,N43A,L44I)1 (designed binder)	–
1.4	63	Zvar(Q9A,N11K,H18K,D37E,A42R,N43A,L44I)1 (designed binder)	–
1.49	67	Zvar(Q9A,N11K,H18K,D37E,A42R,N43A,L44I,K50R)1 (designed binder)	–
1.28	59	Zvar(Q9A,N11K,H18K,S33K,D37E,A42R,N43A,L44I,K50R,L51Y)1 (designed binder)	–
1.3	60	Zvar(Q9del,N11E,Q40V,A42K,N43A,L44I)1 (designed binder)	–
